Measured values: the domain aggregation screens of Martell et al. (2025)

Assay: soluble fraction after stress (log2 fold change); higher = more stays soluble; pooled small domains, quantitative proteomics
Conditions: stress: 75 degC
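Also: 20 min heating vs room temperature control held 20 min.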

| Sequence | soluble fraction (log2) |
| --- | --- |
| HMEREKTYLMPDLIGRKAERVVPRLQASGFKVEDIRHVYYPGLEKGVIVRQSPPGGYPIQKRNLINLEVS | -0.581 |
| HMERLKKYLDDVRTFLPGTNPKKVDEILREIESHVLERAEREHGEVNDNAVAMSIKEYGSPEEVAARYYEG | 0.809 |
| HMERLSNQVYAILKEMIADYRFNPGARINVEQIAKEVGASRTPVWEAVHRLVQEGLLENIPNRGVFML | -1.45 |
| HMERNAEDFAAKYQEIYQDMFRFALYTLKNRQEAEDVVSETVLDAWKGIEGLKNESAFSAWMFRILVNK | 0.126 |
| HMESADEESNALMYDGLLAMRGKRYEVALEFFDALVKHDPDFAEGWNKRATVLYLLGRYERSIADIKQVLA | 0.239 |
| HMESAEQTGEELAARVNVLQTVSQALARELGREAAVEELADKMKMTVDEVKDIMKMAMDAMSM | 0.294 |
| HMESAESRVDLIGMIGEAITDLRPAGTAQFGEERIDVVSESEWITEGSTVKVVSAEGYRHVVRVME | -0.358 |
| HMESENANVNRAMLTGIASMHAGQLETALNKFNEVIQLAPDFAEGWNKRATIFYLMKKFDRSVNDIAQTLK | 0.0648 |
| HMESFGVAIKRLREAQGWTRADFLRQLGKTGYYMHATTLKRIEEGEQIAKVHEAVIISRLFGVTVEEMG | -3.1 |
| HMESGFEAVREVARHGSFANAAKALGVSGPAVSRQVKSLEERLGLVFFHRTTRMVTLTEAGQQLVDTLD | 0.0837 |
| HMESGNLIFTNAPIADVVNAIETRYGKKLQASNQTSDLQFTGIFKNTDEFSTVVKTIEIALGLQFEV | -1.67 |
| HMESIEAGTFELDNKTSIDISEDEANLLNKMFEELTETNSKDMYGVMVADEAGFNEILEFAKENL | 0.00321 |
| HMESNWLTYAKRIQSIADTGMTFAVDDFDKERYQELADISSKMLADLSNIPIGRIENLLGPLGQ | -1.11 |
| HMESPVNTLPEDQRAWYKALPPELSTKTAVEAGAGVGVSERTVKRLLSNQTFFINLQRGNYRKRH | -0.119 |
| HMESRMTYLQKTKLATENLDAKLIDHQQWVAEVLGEDYRGVYSDEYLRRAAKVFAIFVNNLDD | -2.53 |
| HMESRRVTLLLPYDKAGIADTLRREAAVLSLEYGEDGVTVEAVVKPELWGLVREYVQNDNPK | -0.135 |
| HMESVTETFLTNLINRYIADKAGYIISYPSEYRIEVLYHGGQVLDYENLRKSINTYIPAHIGYKLVTI | 0.176 |
| HMESYDSEIKEVLDLAGKGRWEEAQTKADALREMAPNNSLVERLHGWVLQAAHQRREQALENDIRE | 0.432 |
| HMESYTEEMLEKMSVSKLRTIARELQVDNMTREQIRFGKKTELIQNILEFTGREIENMQLYDK | -0.0481 |
| HMESYWVVLRPMAAGTQIGANDLGYRSVALGAAAKNYLAASTNPIGSITRRRLVAGELLQGSSLTDDARA | -0.653 |
| HMETADREILLREIREIINERVDYNKDITDDEMKELVMNTVFERSRQQYMSIQDKQEIIQAIFNSMR | 0.029 |
| HMETAESLLRRLIMLEDPAMQNAMYVLAVMLERGKQLVERAAKPHESGGILRVYEHKKSGDTFVVLDPR | -0.764 |
| HMETDGGDLTPRERDVLSLIGRGLRNAEAASALGLSEHTIAGHIKSVYSKLGISTRAEAALLASRLGL | -0.499 |
| HMETGGLAQEAERELALLQEQIAHHEALYRKGTPEISDGAFDELFDRYQELADSLGVPADERIDRA | 0.155 |
| HMETIHEMVNRLSSEGFIKNEDGIWYLRDRRGDGTKWLKNPFFESTGEKDAFALIDHLKVNDELLSKLRK | -0.621 |
| HMETINERVNSIIEREGHTVATFAKKIGVPWTTIKNIVSGRNAPSYDIMVKIINAVDWVDANYLVMG | -2.59 |
| HMETKIKFQIQTLDELNIRKVADWDAKAITTVKKGQILDVVDTVAAKNGSTPMYRLESGLYITASPKYVKK | -1.16 |
| HMETKPTELMLDVHKLRIGMFVYLDLGWMDHPFPLNRFKISTNAQIEQIKGLRLKQVKVMTALSDPASLL | -4.91 |

| Sequence | soluble fraction (log2) |
| --- | --- |
| HMETKVIVPKVTGMNSKSAINYLSARGLKYKAVPADSGKSFHVVDQYPKSGTKVSPHSTVYLYS | 0.114 |
| HMETLKEVPNLKGQQQEVAKQLLINAGLGVGKINIIEDSTIADGEVVTQSILPNTKVKKDTYVGFTVNKAP | 0.0288 |
| HMETLKLRDSGKEVQSLQELLQRQGLSAPMNGIFDEATKSSVIAFQKANGLDADGIVGYKSWETLFTAG | 0.0141 |
| HMETMSGTVKWFNTQKGYGFITGDDGAEYFAHQTQIKMDGFRTLDAGDIVEFDVRSEEKGLAAVNIVP | 0.781 |
| HMETPDLTQLNPILDEYRGQKGAVIPVLQKAQKIYGFLPPEVLRRIAAGMRVPLSKIYGVATFYSQFY | 0.134 |
| HMETQAGELQDAIRDAIAALPPRTREVFLMSRERNLRYGEIAEALGISVKAVEANMSRALRQLREKLSPFL | -1.26 |
| HMETVMYLRQIKRPQGIYLAIQESYYDSSKKQSRTRTIESIGYLDNLRKEYEDPIAFFSQKAAAMTSEKKK | -1.55 |
| HMETVQTGTVKVSNSLNVRSGAGTNYSVLGSLSNGAKVEIVGTSGSWYKIKYGSGYGYVSKDYVTVS | -0.0122 |
| HMETVSFNPDIAVIPDYRHVVILGETTKTIANKYDIPVDILKAANPGLGNNVTKGDRLRVPDKTKLQ | 0.00398 |
| HMETYHIQMKGDPSKGIVGFSQLDMVIDKIKRLETEKGIAPYELEVLDGDTMEKYSGEEFLTMHE | -0.0165 |
| HMETYSGVERAAILVMYLERTLAKALLDHMNDEEVRRVGMAMASIDRVEGPDIERIVGDFVRELYEVS | -0.642 |
| HMETYTVPEVLGLTPEQAAQLPEVKDIFTLDVKEEGDFSDKPVGTIVRQSPTEGEHRKGDNLVIEVWLSV | 0.166 |
| HMEVADAAQRKILQALQVQPLTVEQLSQELRTDTGDLLVSLSMMEITGLIRREAGNTFLAVFAPK | -1.66 |
| HMEVEIPSREALLGLVQKHLKPVSFDEFVSHFKLGDERQQVGIKRRLRAMERDGQLVYTKANSYGLPDRM | 0.436 |
| HMEVGVSGTVFNTDSLNVRKGPGTNFDTVTSLKRGSVVEVFEQSAVDGTVWGRIANGWVNMQYVSL | -0.707 |
| HMEVKEVDYSAFMTMTEENSISKVEIEENQILFKKKGDDQTTYKTARMDDPALITRLHDQGVDFTGQ | 0.139 |
| HMEVKRANRKERFLEALPYQFSRQDYLNIADKNKIPHKTAEGYITKFVDAGLIHREAHNNYTNPTKA | -0.0913 |
| HMEVLPLHQVKLKYAEADTILIALKSAQSMLSPRGQLLADNRSQQIFVYDDEAHTATLIEAIKHLDQPL | -0.166 |
| HMEVLTEPKVQSIDTHGEKSTFVIESPNPLQPDEIAKLVGADGISVRVDRTWLKSHRDSTWTYSILTVS | -0.118 |
| HMEVPFRNAAIFKTRSGDYAIRASYDGVDLGIKPIEKSTARTYFQLTDVKDKESFLNMTARNQYESEIAGI | -0.0612 |
| HMEVPNLIGMTDKDLQRTYFQLPIEAAGDGSVVIKQLPEPGEKVKEGSVIRVLLG | 0.193 |
| HMEVPQKTLEILEPWRGRKGFLIPVLQAVQHEFGYVPKEAIETVSREMKMPTAEIYGVVTFYAQFH | -0.571 |
| HMEVSEGEIREKVESVFSSNPRQAYNYKQISKKLNINDKSERQIVWDVLRKLAGSGKIQEVEHGRFRARAE | -0.162 |
| HMEVSKETFPAYVAVDSLPVYKSASTSSSKVTTIDFGREVTVVETRGGWAKIQYGSYKGFAEIEGMSKN | -1.06 |
| HMEVVELTDDEKMILATLHDGPVEIGHIKQVVGLSGKKWDAATKSLRQKGLINVVLENEQKLMVK | 0.492 |
| HMEWGEADFVRLDEALATLRTLSPRQAEVVDLRFFSELSLEETAATLGLSLATVKRDWSVARLYLQRALS | 0.198 |
| HMEWTVEKQAAATLNAWMRKNSEMTSEKKVAVAAGIGPATVNRIMKAEVSTTIGVLSSLARAFGHEAYEMI | -0.0249 |
